Source: article PMC12702981, “Population pharmacokinetics of efpeglenatide in individuals with obesity and with type 2 diabetes” (Frontiers in Pharmacology, 2025)
Marks after values point to notes of the source that are not given here.

What was measured:
[1] = ref Geiser et al., 2016; cited from earlier work
Description: This finding is aligned with the pharmacokinetic properties of Fc-fusion proteins, in which neonatal Fc receptor (FcRn)-mediated recycling limits proteolytic catabolism and prolongs systemic residence ([Richter and Jacobsen, 2014]).

[2] = human, in vivo
Description: The population PK analysis was performed based on pooled data from one phase 1 and five phase 2 studies of efpeglenatide. […] Dosing regimens ranged from once weekly (QW) to every other week (Q2W) and once monthly (QM) subcutaneous administration.
The pooled dataset comprised six clinical studies (five studies in patients with T2DM and one study in obesity). A total of 3,596 plasma efpeglenatide concentration measurement were collected from 498 subjects across six clinical studies at prespecified time points.
All samples were analyzed at certified laboratories using validated analytical method. Serum concentrations of efpeglenatide were quantified using a validated Enzyme-Linked Immunosorbent Assay (ELISA) method.
For the PK analysis, 3,316 post-dose plasma concentrations above the lower limit of quantification (LLOQ) were used in the model estimation. All pre-dose concentrations before the first administration were excluded from the dataset. Post-dose samples below the limit of quantification (BLQ) were treated as missing (i.e., not included in the analysis). In total, 117 pre-dose samples (3.25%) and 153 post-dose samples (4.0%) were BLQ.
The base PK model evaluation was begun with a one-compartment disposition model with first-order elimination, with additional refinement to better characterize the absorption phase. […] The first one of the two divided doses was described as the first order absorption after bolus doses into depot compartment, capturing the first peak during the absorption phase. The second part of the dose was introduced to describe the second peak with time delay during absorption phase, which was described using a transit compartment model ([Savic et al., 2007]). […] After the absorption model was established, various compartment models were evaluated.
The transit compartment model describes the delay in absorption as the sequential passage of the drug through a chain of transit compartments, each connected by a first-order transit rate constant (Ktr). The number of transit compartments (n) and the mean transit time (MTT) were estimated from the data, with Ktr calculated as (n+1)/MTT. Drug exiting the final transit compartment entered the absorption compartment and was transferred to the central compartment via first-order absorption, as described by Equations 1–3.
The amount of drug administered subcutaneously (Asc) in the depot, central compartment (Ac) and peripheral compartment (Ap) were described using the following differential Equations 4–6: dAsc/dt=Dose·BIOA1+Dose·BIOA2·Ktr·t^n·e^−Ktr·t/2π·n^n+0.5·e^−n−ka·Asc (4) dAc/dt=ka·Asc−Ac/Vc·CL−Ac/Vc·Q+Ap/Vp·Q (5) dAp/dt=Ac/Vc·Q−Ap/Vp·Q (6)
To confine the estimated fraction values to the range between 0 and 1 and to allow implementation of interindividual variability, a logit transformation was applied. BIOA1 and BIOA2 represent the fractions of the administered dose entering the depot compartment via the bolus administration route and the delayed absorption route, respectively. The transformation was defined as shown in Equation 7 ([Adedokun et al., 2020]): BIOA1=e^BIOF/1+e^BIOF,BIOA2=1/1+e^BIOF (7) where BIOF is an unbounded parameter ( −∞∼∞ ) representing the logit-transformed value of BIOA1, and BIOA2 = 1-BIOA1
The population PK modeling analysis was performed using NONMEM version 7.5 (ICON Development Solutions, Hanover, MD, United States). The first-order conditional estimation method with interaction (FOCEI) was used to approximate the marginal likelihood and facilitate estimation of population model parameters.

[3] = ref Yoon et al., 2020; cited from earlier work
Description: Gastrointestinal (GI) adverse events are the most frequent class-related tolerability issues with GLP-1 receptor agonists, and stepwise dose-escalation regimens are commonly used to mitigate these events ([U.S. Food and Drug Administration, 2014]; [Davies et al., 2022]). […] Efpeglenatide has shown an adverse event profile consistent with this drug class ([Yoon et al., 2020]; [Gerstein et al., 2021]). The model-derived effective half- ...

[4] = patients with T2DM; ref Gerstein et al., 2021; cited from earlier work

Substance	CL, clearance [1]	BIOA1, dose fraction absorbed via the first-order pathway [2]	BIOA2, dose fraction absorbed via the transit-compartment pathway [2]	BIOF, logit parameter expressing the fraction of dose absorbed via the first-order and transit pathway [2]	CL/F in T2DM, clearance for patients with T2DM [2]	CL/F in obesity, clearance for obesity [2]	Covariate effect (θ) of body weight on CL/F [2]	Covariate effect (θ) of body weight on ka [2]	Expected time to steady state [2]	Higher clearance (CL/F) in T2DM than in obesity [2]	MTT, mean transit time [2]	Model-derived effective half-life [2]	N, number of transit compartments [2]	VSS [2]	Q/F, inter-compartment clearance ([2]; sc)	VC/F, volume of the central compartment ([2]; sc)	VP/F, volume of the peripheral compartment ([2]; sc)	ka, absorption rate constant ([2]; sc)	Clinically reported half-life [3]	Weight loss [4]
dulaglutide: another Fc-fusion GLP-1 receptor agonist	0.059 L/h	–	–	–	–	–	–	–	–	–	–	–	–	–	–	–	–	–	–	–
efpeglenatide	–	0.248 ^a	0.752 ^b	−1.11 [27.59]	0.044 [1.50] L/h	0.032 [1.79] L/h	0.964 [6.75]	−0.927 [14.24]	≈ 4 weeks	38%	2.680 [13.47] hour	140 to 170 h	5.520 [22.28]	≈ 6.8 L	0.073 [11.14] L/h	2.80 [7.39] L	3.96 [6.57] L	0.006 [4.33] 1/h	134 to 180 h	6%–7%
